Common to all, as to assay: cell_activity
The test system of series [1] is FAD2_T04_Left_C11 + FAD2_T03_Right_C11 TALEN pair. The following applies: yeast reporter cleavage.
Series [2] concerns FAD2_T02_Left_C11 + FAD2_T01_Right_C11 TALEN pair. The following applies: yeast reporter cleavage.
The subject of series [3] is FAD2_T02_Left_C40 + FAD2_T01_Right_C40 TALEN pair. The following applies: yeast reporter cleavage.
The subject of series [4] is FAD2_T04_Left_C40 + FAD2_T03_Right_C40 TALEN pair. As to conditions: yeast reporter cleavage.
Series [5] deals with FAD2_T01_Left_C40 + FAD2_T01_Right_C40 TALEN pair. The following applies: yeast reporter cleavage.
Series [6] has as its system FAD2_T03_Left_C11 + FAD2_T03_Right_C11 TALEN pair. The following applies: yeast reporter cleavage.
For series [7], the system named is FAD2_T03_Left_C40 + FAD2_T03_Right_C40 TALEN pair. As to conditions: yeast reporter cleavage.
Series [8] deals with FAD2_T01_Left_C11 + FAD2_T01_Right_C11 TALEN pair. As to conditions: yeast reporter cleavage.
Series [9] relates to FAD2_T03_Left_C40 TALEN monomer (synthetic (TAL effector-nuclease fusion)?). As to conditions: yeast reporter; value of pair with T03_Right_C40 on Target 3.
Series [10] relates to FAD2_T03_Left_C11 TALEN monomer (synthetic (TAL effector-nuclease fusion)?). The following applies: yeast reporter; value of pair with T03_Right_C11 on Target 3.
In series [11] the test system is FAD2_T01_Left_C40 TALEN monomer (synthetic (TAL effector-nuclease fusion)?). The following applies: yeast reporter; value of pair with T01_Right_C40 on Target 1.
Series [12] concerns FAD2_T01_Left_C11 TALEN monomer (synthetic (TAL effector-nuclease fusion)?). As to conditions: yeast reporter; value of pair with T01_Right_C11 on Target 1.
Series [13] concerns FAD2_T04_Left_C40 TALEN monomer (synthetic (TAL effector-nuclease fusion)?). As to conditions: yeast reporter; value of pair with T03_Right_C40 on Target 4.
Series [14] concerns FAD2_T04_Left_C11 TALEN monomer (synthetic (TAL effector-nuclease fusion)?). As to conditions: yeast reporter; value of pair with T03_Right_C11 on Target 4.
In series [15] the test system is FAD2_T01_Right_C40 TALEN monomer (synthetic (TAL effector-nuclease fusion)?). The following applies: yeast reporter; value of pair with T01_Left_C40 on Target 1.
Series [16] deals with FAD2_T01_Right_C11 TALEN monomer (synthetic (TAL effector-nuclease fusion)?). The following applies: yeast reporter; value of pair with T01_Left_C11 on Target 1.
Series [17] concerns FAD2_T02_Left_C40 TALEN monomer (synthetic (TAL effector-nuclease fusion)?). As to conditions: yeast reporter; value of pair with T01_Right_C40 on Target 2.
Series [18] has as its system FAD2_T02_Left_C11 TALEN monomer (synthetic (TAL effector-nuclease fusion)?). As to conditions: yeast reporter; value of pair with T01_Right_C11 on Target 2.
Series [19] concerns FAD2_T03_Right_C40 TALEN monomer (synthetic (TAL effector-nuclease fusion)?). The following applies: yeast reporter; value of pair with T03_Left_C40 on Target 3.
Series [20] deals with FAD2_T03_Right_C11 TALEN monomer (synthetic (TAL effector-nuclease fusion)?). As to conditions: yeast reporter; value of pair with T03_Left_C11 on Target 3.
[21] abbreviates: left site truncated in Target 3.
Where [22] appears, read: left site truncated in Target 1.

With “ATTTCTCATGGAAAATAAGCCATCGCCGCCATCACTCCAACACAGGTTCCCTTGACCGTGATGAAGTGTTTGTCCC (double strand) [FAD2 Target 4]”, the activity (relative to I-SceI) is 0.54 in series [1]; 0 in series [2]; 0 in [3]; 0.52 in series [4]; 0 in series [5]; 0.53 in series [6]. In addition, the activity (relative to I-SceI) stood at 0.51 in series [7] and 0 in series [8].
In the case of “ACATTGCCACCACCTACTTCCACCTCCTTCCTCAACCCTTTTCCCTCATTGCATGGCCAATCT (double strand) [FAD2 Target 2]”, the activity (relative to I-SceI) turned out to be 0 in [1]; 0.97 in [2]; 0.96 in [3]; 0 in series [4]; 0.73 in series [5]; 0 in series [6]. The activity (relative to I-SceI) in [7] was 0; in [8] it was 0.87.
Take “CTCATGGAAAATAAGCCAT (double strand) [FAD2_T03 left half-site]”: the activity (relative to I-SceI) in series [9] worked out at 0.63; in series [10], 0.65.
In the case of “GCCACCACCTACTTCCACCTCCT (double strand) [FAD2_T01 left half-site]”, the activity (relative to I-SceI) came out at 0.79 in series [11] and 0.73 in series [12].
In the case of “ATTTCTCATGGAAAATAAGCCAT (double strand) [FAD2_T04 left half-site]”, the activity (relative to I-SceI) in series [13] came to 0.52; in [14], 0.54.
For the sequence “ATTGCATGGCCAATCT (double strand) [FAD2_T01/T02 right half-site]”, the figures for the activity (relative to I-SceI) in series [15] and in [16] were 0.79 and 0.73, respectively.
Turning to “ACATTGCCACCACCTACTTCCACCT (double strand) [FAD2_T02 left half-site]”, the activity (relative to I-SceI) in [17] was found to be 0.96; in series [18] it was 0.97.
As for “CTCATGGAAAATAAGCCATCGCCGCCATCACTCCAACACAGGTTCCCTTGACCGTGATGAAGTGTTTGTCCC (double strand) [FAD2 Target 3]”, the activity (relative to I-SceI) in series [1] (setting [21]) turned out to be 0; in series [2], 0; in [3], 0; in series [4] (setting [21]), 0; in [5], 0; in series [6] it was 0.65. Further, the activity (relative to I-SceI) in series [7] came out at 0.63; in series [8], 0.
Regarding “ACCGTGATGAAGTGTTTGTCCC (double strand) [FAD2_T03/T04 right half-site]”, the activity (relative to I-SceI) in series [19] came out at 0.63; in series [20], 0.65.
With “GCCACCACCTACTTCCACCTCCTTCCTCAACCCTTTTCCCTCATTGCATGGCCAATCT (double strand) [FAD2 Target 1]”, the activity (relative to I-SceI) in series [1] came to 0; in series [2] (setting [22]) it was 0; in series [3] (setting [22]) it was 0; in series [4], 0; in series [5], 0.79; in series [6], 0. Moreover, the activity (relative to I-SceI) worked out at 0 in series [7] and 0.73 in [8].
